In patent publication US20220372154A1 (APEXIGEN, published 2022):
Changes are numbered by the printed parent chain.

T1: human TNFR2-His tagged protein (soluble) (human, UniProt P20333 23-257)
T1 construct: also called hTNFR2 (soluble); soluble TNFR2-His; not shown: His tag
T1 sequence (looked up): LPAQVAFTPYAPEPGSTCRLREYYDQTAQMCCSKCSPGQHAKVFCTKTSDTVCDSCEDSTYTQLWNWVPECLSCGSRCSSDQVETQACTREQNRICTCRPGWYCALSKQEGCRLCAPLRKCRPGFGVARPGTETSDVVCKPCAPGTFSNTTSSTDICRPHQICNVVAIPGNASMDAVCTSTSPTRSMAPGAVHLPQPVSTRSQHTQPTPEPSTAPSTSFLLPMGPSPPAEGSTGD

T2: soluble mouse TNFR2 (mouse, UniProt P25119 23-258, limits assumed)
T2 sequence (looked up): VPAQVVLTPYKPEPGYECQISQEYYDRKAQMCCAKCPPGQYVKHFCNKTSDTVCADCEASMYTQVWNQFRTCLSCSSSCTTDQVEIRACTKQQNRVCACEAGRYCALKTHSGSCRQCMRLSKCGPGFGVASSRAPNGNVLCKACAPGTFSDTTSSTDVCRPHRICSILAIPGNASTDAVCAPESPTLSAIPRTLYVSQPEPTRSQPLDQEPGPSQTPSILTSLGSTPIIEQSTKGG

T3: cynomolgus TNFR2-His tagged protein (cynomolgus, UniProt A0A2K5VET2 132-366)
T3 construct: also called Cyno TNFR2; cynomolgus TNFR2 protein; not shown: His tag
T3 sequence: T1 sequence (looked up) with S16G, S36P, P117Q, N164H, E210A, S216G, M223V

T4: human TNFR2 expressed on cells (human, UniProt P20333 23-461)
T4 construct: whole, on cells; also called hTNFR2 (cell); CHO-TNFR2
T4 sequence (looked up): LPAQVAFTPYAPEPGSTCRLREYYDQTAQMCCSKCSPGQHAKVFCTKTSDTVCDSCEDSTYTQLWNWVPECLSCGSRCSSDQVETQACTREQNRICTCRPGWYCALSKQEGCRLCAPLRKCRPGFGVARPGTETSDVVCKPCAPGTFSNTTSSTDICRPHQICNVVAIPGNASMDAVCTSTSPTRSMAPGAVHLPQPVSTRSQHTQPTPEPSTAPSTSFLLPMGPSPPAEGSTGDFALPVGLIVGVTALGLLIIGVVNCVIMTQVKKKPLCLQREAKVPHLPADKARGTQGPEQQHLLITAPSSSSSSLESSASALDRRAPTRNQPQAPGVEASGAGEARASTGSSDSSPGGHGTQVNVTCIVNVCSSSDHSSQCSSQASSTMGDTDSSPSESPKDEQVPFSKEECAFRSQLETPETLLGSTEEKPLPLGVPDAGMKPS

T5: TNFR-Fc (UniProt P20333 23-257, limits assumed)
T5 construct: Printed only as TNFR-Fc; not shown: Fc part
T5 sequence (looked up): T1 sequence (looked up)

T6: TNFR2 PLAD or CRD1 peptide (aa 17-54 of mature TNFR2) (human)
T6 construct: Range counted on mature TNFR2
T6 peptide: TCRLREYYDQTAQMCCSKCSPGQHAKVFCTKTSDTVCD

T7: human TNFR1-His tagged protein (human, UniProt P19438 30-211, limits assumed)
T7 construct: also called soluble human TNFR1; not shown: His tag
T7 sequence (looked up): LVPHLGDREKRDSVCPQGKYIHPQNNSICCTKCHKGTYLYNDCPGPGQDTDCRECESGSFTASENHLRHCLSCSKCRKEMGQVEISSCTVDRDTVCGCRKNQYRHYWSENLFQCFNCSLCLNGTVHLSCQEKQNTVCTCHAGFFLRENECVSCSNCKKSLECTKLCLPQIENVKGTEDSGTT

B1: humanized antibody h600_24_124 (antibody, V domains shown)
VH: EVQLVESGGGLVQPGGSLRLSCAASGIDFSSYGISWVRQAPGKGLEWVAYIYPDYGSTDYATWVNGRFTISLDNSKNTLYLQMNSLRAEDTAVYYCASGYASSSGYYDPKYFGLWGQGTLVTVSS
VL: DIQMTQSPSSLSASVGDRVTITCRASEDIESYLAWYQQKPGKAPKLLIYDASDLASGVPSRFSGSGSGTDFTLTISSLQPEDFATYYCQHGFYTSRSDSVFGGGTKVEIK
B2: humanized antibody h600_24_2 (antibody, V domains shown)
VH: EVQLVESGGGLVQPGGSLRLSCAASGFSFSVSYWICWVRQAPGKGLEWVACTDGGDGSSYYASWVNGRFTISRDNSKNTLYLQMNSLRAEDTAVYYCARDRSDVFNLWGQGTLVTVSS
VL: DIQMTQSPSSLSASVGDRVTITCQAGQSIDSNLAWYQQKPGKAPKLLIYRASTLASGVPSRFSGSGSGTDFTLTISSLQPEDFATYYCQSFYVTISAMVDYPFGGGTKVEIK
B3: humanized antibody h600_HB_11D7.1 (antibody, V domains shown)
VH: EVQLVESGGGLVQPGGSLRLSCAASGFDFSRYYMSWVRQAPGKGLEWVGYIDPIFGNTYYASWVNGRFTISSDNAKNSLYLQMNSLRAEDTAVYYCARDGDAGYDGYGYGTDLWGQGTLVTVSS
VL: DIQMTQSPSSLSASVGDRVTITCQASENIYSGLAWYQQKPGKVPKLLIVSAFTLASGVPSRFSGSGSGTDFTLTISSLQPEDVATYYCQTYYYGSVTYFNAFGGGTKVEIK
B4: humanized antibody h600_HB_28B7.3 (antibody, V domains shown)
VH: EVQLVESGGGLVQPGGSLRLSCAASGFSLNSHYMIWVRQAPGKGLEWVGIITSSDYIYYARWAKGRFTISRDNSKNTLYLQMNSLRAEDTAVYYCARYNYDDDGELFNLWGQGTLVTVSS
VL: DIQMTQSPSSLSASVGDRVTITCQSSQSIDANNDLAWYQQKPGKAPKLLIYLASKLASGVPSRFSGSGSGTDFTLTISSLQPEDFATYYCLGGYDDDADNTFGGGTKVEIK
notes: also called h600_23_28B7
B5: humanized antibody h600_HB_55F6.6 (antibody, V domains shown)
VH: EVQLVESGGGLVQPGGSLRLSCAASGFSFTNNYYMCWVRQAPGKGLEWVGCIYPSIVGPTYYANWAKGRFTISRDNSKNTLYLQMNSLRAEDTAVYYCVRDRYDDYGDYFNLWGQGTLVTVSS
VL: DIQMTQSPSSLSASVGDRVTITCQASQSIYNYLSWYQQKPGKAPKRLIYYASTLASGVPSRFSGSGSGTDFTLTISSLQPEDFATYYCQSNSGVNGNRYGNAFGGGTKVEIK
notes: also called 55F6.1
B6: humanized antibody h600_25_9 (antibody, V domains shown)
VH: EVQLVESGGGLVQPGGSLRLSCAASGFSLSTYDINWVRQAPGKGLEWVGIIYTGGITNFANWAKGRFTISRDNSKNTLYLQMNSLRAEDTAVYYCARGGYDSEGYVYPDAFDPWGQGTLVTVSS
VL: DIQMTQSPSSLSASVGDRVTITCQASESISNLLAWYQQKPGKAPKLLIYRASILTSGVPSRFSGSGSGTDFTLTISSLQPEDFATYYCQHGYTGTNVQNVFGGGTKVEIK
B7: humanized antibody clone 25-31 (h600_24_31) (antibody, V domains shown)
VH: EVQLVESGGGLVQPGGSLRLSCAASGFSLSSYDMSWVRQAPGKGLEWVGYIWSSGSAYYATWAEGRFTISRDNSKNTLYLQMNSLRAEDTAVYYCARRYVGSSYDTWGQGTLVTVSS
VL: DIQMTQSPSSLSASVGDRVTITCQSSQSVSSNNYLSWYQQKPGKAPKLLIYAASYLASGVPSRFSGSGSGTDFTLTISSLQPEDFATYYCLGDYDNDIDHAFGGGTKVEIK
notes: its heavy-chain CDRs are those of rab600_25_31
B8: chimeric antibody clone 6 (rab600_23_6) (antibody, V domains shown)
VH: QEQLKESGGRLVTPGTPLTLTCTASGFSLSSYYVSWVRQAPGKGLEWIGIIHSDGSIYYATWAKGLFTISRTSTTVDLKATSLTTEDTATYFCVRGYPGYYTSTFNRLDLWGQGTLVTVSS
VL: AYDMTQTPASVEVAVGGTVTIKCQASQTISNELSWYQQKSGQPPKLLIYRASTLASGVPSRFSGSGSGTEFTLTISGVECDDAATYYCQQGYTTNNVDNLFGGGTEVVVK
B9: chimeric antibody clone 81 (rab600_23_81) (antibody, V domains shown)
VH: QSLEESGGRLVTPGTPLTLTCTASGFSLSNYYVSWVRQAPGKGLEWIGIIETGGNLYYASWAKGRFSLSKTSTTVDLKITSPTAEDTATYFCVRGYPGYYTHTFNRLDLWGQGTLVTVSS
VL: B8 VL with Q27E, T28S, S30A, Q38R, S63K, E70Q, N95I, V97I

target: T1, human TNFR2-His tagged protein (soluble); experiment: ELISA, soluble human TNFR2

Binder | EC50 [nM]
B1 | 0.098
B2 | 0.149
B3 | 0.091
B4 | 0.24
B5 | 0.131
B6 | 0.051
B7 | 0.72

target: T1, human TNFR2-His tagged protein (soluble); experiment: ELISA on coated human TNFR2-His
In short: (§1)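 TNFR2-His ELISAs: human or cynomolgus protein coated at 1 μg/mL overnight at 4 °C, BSA-blocked, antibodies 1 h RT, anti-human HRP, TMB 3–5 min. Flow: 200,000 human TNFR2-CHO cells, antibody 1 h, anti-human IgG BV421 20 min. Blocking ELISA: TNFR-Fc coated 1 ug/mL, antibodies 1 h RT, TMB 5–7 min.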

Binder | EC50 [nM]
B8 | 0.147
B9 | 7.39

target: T2, soluble mouse TNFR2; experiment: binding screen on soluble mouse TNFR2 (mouse cross-reactivity)

Binder | binding result
B8 | no binding
B9 | no binding

target: T3, cynomolgus TNFR2-His tagged protein; experiment: ELISA on coated cynomolgus TNFR2-His
In short: as §1

Binder | EC50 [nM]
B8 | 0.104
B9 | 4.04

target: T4, human TNFR2 expressed on cells; experiment: cell binding on TNFR2-overexpressing (OE) cells

Binder | Kd [nM]
B1 | 0.291
B2 | 0.245
B3 | 0.201
B4 | 0.13
B5 | 0.539
B6 | 0.387
B7 | 12.1

target: T5, TNFR-Fc; experiment: TNF-α blocking ELISA on coated TNFR-Fc
In short: as §1

Binder | IC50 [nM]
B8 | 5.63

target: T4, human TNFR2 expressed on cells; experiment: blocking of biotinylated TNF-α on TNFR2-CHO cells, flow cytometry
Description: TNFR2-overexpressing CHO cells were plated at 100,000 cells per well. Cells were incubated with the indicated antibodies for 30 minutes on ice. […] Cells were analyzed using Cytoflex or MACSQuant flow cytometer. Assay was repeated twice.

Binder | IC50 [nM]
B1 | 0.567
B2 | 0.447
B3 | 0.323
B4 | 0.379
B5 | 0.566
B6 | 7.02

Target: T6, TNFR2 PLAD or CRD1 peptide (aa 17-54 of …)
Experiment: peptide-binding ELISA (potential peptide bin)

Binder | binding result
B8 | binds
B9 | binds

target: T5, TNFR-Fc; experiment: TNF-α blocking ELISA (soluble)

Binder | IC50 [nM]
B1 | 2.29
B2 | 3.52
B3 | 2.96
B4 | 2.46
B5 | 3.81
B6 | 0.465

target: T3, cynomolgus TNFR2-His tagged protein; experiment: ELISA, cynomolgus TNFR2

Binder | EC50 [nM]
B1 | 0.058
B2 | 0.131
B3 | 0.054
B4 | 0.211
B5 | 0.109
B6 | 0.046
B7 | 1.86

target: T4, human TNFR2 expressed on cells; experiment: flow cytometry on CHO cells expressing human TNFR2
In short: as §1

Binder | EC50 [nM]
B8 | 0.277
B9 | 9.44

target: T4, human TNFR2 expressed on cells; experiment: flow cytometry, cell-expressed human TNFR2

Binder | EC50 [nM]
B1 | 0.408
B2 | 0.377
B3 | 0.239
B4 | 0.28
B5 | 0.672
B6 | 0.587
B7 | 12.1

target: T7, human TNFR1-His tagged protein; experiment: ELISA on coated TNFR1-His (1 ug/mL), OD 450 nm
Description: TNFR1-His tagged protein was coated on ELISA plates at 1 μg/mL at 4° C. overnight. Plates were washed, blocked, and antibodies were added at indicated concentrations for 1 hour at RT. Antibodies were washed and detected with anti-human IgG HRP for 1 hour. Assay was developed using TMB substrate for 10 minutes.

Binder | binding result
B3 | binds
B7 | binds
